The target of the test is CA_(E180A) and CA_(E187A). Nature of the test: co-sedimentation.

Binding as percent of WT CA tubes data for one substance are collected here from PMC7183857.

As for “MxB_(1–35)-MBPdi (from UniProt P20592 1-35)”, the binding as percent of WT CA tubes is 73 to 83 % of WT.
